Reference: EP4417623A1 (Fundació Institut de Recerca Contra la Leucèmia Josep …, dated 2024)
Where no end group is shown, it is not given here.

Legend:
Peptide 3: SSMEDYVNFN-C = biological target: T1, Peptide 3: SSMEDYVNFN-C (not fully specified; printed as SSMEDYVNFN-C); assay: peptide ELISA titration, OD450
T1 peptide: SSMEDYVNFNC

Peptide 4: SMEDYVNFNF-C = biological target: T2, Peptide 4: SMEDYVNFNF-C (not fully specified; printed as SMEDYVNFNF-C); assay: peptide ELISA titration, OD450
T2 peptide: SMEDYVNFNFC

[1] = biological target: T3, CCR9 peptide #1 MADDYGSESTSSMEDYVNFNF-C (human, extra C-terminal Cys for BSA conjugation (coated as non-conjugated or BSA-conjugated peptide)); assay: ELISA screening against the immunisation peptide
T3 construct: This is the immunisation peptide; It was conjugated to BSA for the ELISA screenings; also called MADDY peptide; complete antigen peptide
T3 peptide: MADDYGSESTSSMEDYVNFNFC

- binding result (Peptide 3: SSMEDYVNFN-C): binds
- binding result (Peptide 4: SMEDYVNFNF-C): binds
- binding result [1]: binds
B1: anti-CCR9 antibody clone 115 (antibody, V domains shown)
VH: QVQLKQSGPELVKPGTSVRVSCTASGYSFTDYIIYWVKQSHGRSLEWIGYIDPNNYNTRYSQKFKGKATLTVDKSSTSAFMHLNSLTSDDSAVYYCARDVYWGQGTTLTVSS
VL: DVVMTQTPLSLTVSLGDQASISCRSSQSLVHSNGKTYLQWYLQKPGQSPKLLIYKVSNRFSGVPDRFSGSGSGTDFTLKISRVEAEDLGVYFCAQSTHVWTFGGGTKLEIKR
notes: Murine monoclonal antibody, isotype IgG1; It was tested as hybridoma supernatant in the FACS screening and as Protein A/G purified antibody in the ELISA
